Target: human FcRn (human) (UniProt P55899)
Assay: SPR Biacore 3000, antibody immobilised on CM5, hFcRn analyte, pH 7.5, 25 C, 1:1 fit

Kd: 1.9 nM
Substance: DX-2504 (antibody)
